{"source": "patent US20250333484A1", "about": "(US Dept. of Health and Human Services, published 2025)", "key": {"[1]": {"target": "T1, 676 aa long full-length GP probe (EBOV glycoprotein) (Ebola virus (EBOV), UniProt Q05320 33-676)", "T1 sequence": "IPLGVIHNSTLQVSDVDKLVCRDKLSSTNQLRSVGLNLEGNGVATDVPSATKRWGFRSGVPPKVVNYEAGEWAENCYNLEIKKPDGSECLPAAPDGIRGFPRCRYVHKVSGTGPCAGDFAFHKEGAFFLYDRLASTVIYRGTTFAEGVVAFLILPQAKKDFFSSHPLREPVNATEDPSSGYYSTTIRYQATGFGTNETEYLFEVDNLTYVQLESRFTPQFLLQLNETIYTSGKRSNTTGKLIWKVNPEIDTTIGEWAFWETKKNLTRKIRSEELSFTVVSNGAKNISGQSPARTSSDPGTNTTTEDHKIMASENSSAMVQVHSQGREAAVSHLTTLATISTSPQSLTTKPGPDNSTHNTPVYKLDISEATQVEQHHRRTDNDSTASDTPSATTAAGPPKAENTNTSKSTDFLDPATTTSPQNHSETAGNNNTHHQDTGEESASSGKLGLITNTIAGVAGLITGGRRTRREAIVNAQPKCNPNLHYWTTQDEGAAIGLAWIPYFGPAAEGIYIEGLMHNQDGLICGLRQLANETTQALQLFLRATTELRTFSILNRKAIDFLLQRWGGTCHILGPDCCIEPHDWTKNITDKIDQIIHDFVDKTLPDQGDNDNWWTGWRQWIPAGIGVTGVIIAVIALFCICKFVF", "test": "BLI saturation binding, full probe on sensor"}, "[2]": {"target": "T1, 676 aa long full-length GP probe (EBOV …)", "test": "BLI kinetics on full-length GP with the mAb114 site blocked"}, "[3]": {"target": "T1, 676 aa long full-length GP probe (EBOV …)"}}}
{"binder": "mAb114 (parental IgG) (antibody, V domains shown) VH: EVQLVESGGGLIQPGGSLRLSCAASGFALRMYDMHWVRQTIDKRLEWVSAVGPSGDTYYADSVKGRFAVSRENAKNSLSLQMNSLTAGDTAIYYCVRSDRGVAGLFDSWGQGILVTVSS VL: DIQMTQSPSSLSASVGDRITITCRASQAFDNYVAWYQQRPGKVPKLLISAASALHAGVPSRFSGSGSGTHFTLTISSLQPEDVATYYCQNYNSAPLTFGGGTKVEIKS", "values": [{"measurement": "fold binding response at saturation against A09", "setting": "[1]", "value": 2, "unit": "fold"}]}
{"binder": "FabA09 (Fab of parental mAbA09) (Fab, V domains shown) VH: QVQLQESGPGLVKPSETLSLTCVVSGGILSSFYWNWIRQPPGKGLEWIGNIYYSGSPNYNASFQSRVAISVDTSKNQISLNLKSVTAADTAMYYCVRASRAYLWGSYRPTALDLWGQGSLVTVSS VL: SYELTQPPSVSVSPGQTATITCSGDKLGDKYTSWFQQRPGQSPLLVIYQDNKRPSGLPARFSGSNSGNTATLTISGTQAMDEADYLCQVWDSGAVFGGGTKLTVL", "values": [{"measurement": "fold on-rate against BiSp107", "setting": "[2]", "value": 3.4, "unit": "fold"}]}
{"binder": "BiSp107 (mAb114×A09) CrossMab bispecific IgG (bispecific antibody) heavy 1: not shown light 1: DIQMTQSPSSLSASVGDRITITCRASQAFDNYVAWYQQRPGKVPKLLISAASALHAGVPSRFSGSGSGTHFTLTISSLQPEDVATYYCQNYNSAPLTFGGGTKVEIKSSASTKGPSVFPLAPSSKSTSGGTAALGCLVKDYFPEPVTVSWNSGALTSGVHTFPAVLQSSGLYSLSSVVTVPSSSLGTQTYICNVNHKPSNTKVDKKVEPKSC heavy 2: not shown light 2: SYELTQPPSVSVSPGQTATITCSGDKLGDKYTSWFQQRPGQSPLLVIYQDNKRPSGLPARFSGSNSGNTATLTISGTQAMDEADYLCQVWDSGAVFGGGTKLTVLGQPKAAPSVTLFPPSSEELQANKATLVCLISDFYPGAVTVAWKADSSPVKAGVETTTPSKQSNNKYAASSYLSLTPEQWKSHRSYSCQVTHEGSTVEKTVAPTECS", "values": [{"measurement": "fold difference in binding kinetics against parental Fab", "setting": "[3]", "value": "≤ 3", "unit": "fold"}]}
